Assays:
TraesCS1D01G052500 = tested on: T1, TraesCS1D01G052500; test: decarboxylase kinetics, Michaelis-Menten fit; product tryptamine by LC-MS; assay type: biochemical, Triticum aestivum; settings: 50 ppm PLP; 10-1,250 uM tryptophan; assay buffer of the standard assay 50 mM Tris-HCl pH 8.0, 37 C
T1 construct: gene TDC; full-length cDNA in pGEX-6p-1; E. coli BL21(DE3)

[1] = tested on: N[C@@H](Cc1c[nH]c2ccccc12)C(=O)O; test: as above; assay type: biochemical, Oryza sativa; settings: 50 ppm PLP, 10-1,250 uM tryptophan, assay buffer of the standard assay 50 mM Tris-HCl pH 8.0, 37 C

Compound | Km (TraesCS1D01G052500) | Km [1] | kcat [1] | kcat/Km [1]
N[C@@H](Cc1c[nH]c2ccccc12)C(=O)O [tryptophan] | 100 ± 10 µM |  |  | 
OsTDC1 (Oryza sativa Japonica Group) |  | 0.31 ± 0.03 mM | 3.66 ± 0.27 s⁻¹ | 11800 M⁻¹ s⁻¹

From PMC6103272, “Genome-Wide Association Studies of Free Amino Acid Levels by Six Multi-Locus Models in Bread Wheat” (Frontiers in Plant Science, 2018)
